In article PMC3326539 (The Journal of biological chemistry, 2005):

How the values were obtained:
crystal structure = target: the molecule itself; assay: crystal structure
[1] = target: T1, ArnA C-terminal decarboxylase domain (T316M to S660) (E. coli, UniProt P77398 316-660, T316M); assay: SEC
T1 sequence (looked up): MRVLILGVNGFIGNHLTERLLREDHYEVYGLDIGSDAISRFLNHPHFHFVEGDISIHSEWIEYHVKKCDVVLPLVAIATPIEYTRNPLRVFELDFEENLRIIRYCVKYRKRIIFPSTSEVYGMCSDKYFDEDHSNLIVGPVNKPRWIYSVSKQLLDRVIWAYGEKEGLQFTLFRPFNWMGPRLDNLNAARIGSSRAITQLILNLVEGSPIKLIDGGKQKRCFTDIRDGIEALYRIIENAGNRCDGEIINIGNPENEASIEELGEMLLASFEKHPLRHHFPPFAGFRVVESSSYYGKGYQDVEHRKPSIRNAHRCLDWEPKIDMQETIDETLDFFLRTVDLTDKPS

B1: ArnA N-terminal formyltransferase domain (residues M1 to N305) (domain or fragment, E. coli, UniProt P77398 1-305, looked up)
chain: MKTVVFAYHDMGCLGIEALLAAGYEISAIFTHTDNPGEKAFYGSVARLAAERGIPVYAPDNVNHPLWVERIAQLSPDVIFSFYYRHLIYDEILQLAPAGAFNLHGSLLPKYRGRAPLNWVLVNGETETGVTLHRMVKRADAGAIVAQLRIAIAPDDIAITLHHKLCHAARQLLEQTLPAIKHGNILEIAQRENEATCFGRRTPDDSFLEWHKPASVLHNMVRAVADPWPGAFSYVGNQKFTVWSSRVHPHASKAQPGSVISVAPLLIACGDGALEIVTGQAGDGITMQGSQLAQTLGLVQGSRLN
Crystal structure
  binding result: binds
[1]
  Kd: > 5 mM
